Laboratory results: the supplement of paper PMC7877785
± gives the uncertainty stated by the source.

Test: self-splicing fitness, log relative to wild type (ln ratio); higher = more splicing; Tetrahymena group I intron in knt gene, E. coli kanamycin selection, DiMSum; sequences stand for … in CUCUCU…GGAGGGAAAAGUUAUCAGGCAUGCACCUGGUAGCUAGUCUUUAAACCAAUAGAUUGCAUCGGUUUAAAAGGCAAGACCGUCAAAUUGCGGGAAAGGGGUCAACAGCCGUUCAGUACCAAGUCUCAGGGGAAACUUUGAGAUGGCCUUGCAAAGGGUAUGGUAAUAAGCUGACGGACAUGGUCCUAACCACGCAGCCAAGUCCUAAGUCAACAGAUCUUCUGUUGAUAUGGAUGCAGUUCACAGACUAAAUGUCGGUCGGGGAAGAUGUAUUCUUCUCAUAAGAUAUAGUCGGACCUCUCCUUAAUGGGAGCUAGCGGAUGAAGUGAUGCAACACUGGAGCCGCUGGGAACUAAUUUGUAUGCGAAAGUAUAUUGAUUAGUUUUGGAGUACUCGUGGUCG
Outline: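 DiMSum derived fitness as the error-weighted combination of fold changes across replicates, kanamycin versus no kanamycin, normalised to wild type. E. coli BL21(DE3) held the library, which randomised all eight P1ex-region intron nucleotides within the knt kanamycin-resistance gene on pET-22b(+). Six replicate transformations grew overnight at 37°C or 30°C on LB agar with or without 25 μg/mL kanamycin, also containing 100 μg/mL carbenicillin, 50 μM IPTG and 0.2% rhamnose, and pooled colonies were amplicon-sequenced on an Illumina HiSeq 2500.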

Sequence: UGUUAGCAAUAUUACGACAG
- self-splicing fitness (ln) (30 °C): -1.39 ± 0.17
- self-splicing fitness (ln) (37 °C): 0.0704 ± 0.2

Sequence: UGUUAGCAAUAUUACGACGU
- self-splicing fitness (ln) (30 °C): -0.716 ± 0.11
- self-splicing fitness (ln) (37 °C): -1.37 ± 0.1

Sequence: UGUUAGCAAUAUUACGCAUC
- self-splicing fitness (ln) (37 °C): -1.93 ± 0.27

Sequence: UGUUAGCAAUAUUACGCCCG
- self-splicing fitness (ln) (30 °C): -0.283 ± 0.18
- self-splicing fitness (ln) (37 °C): 0.289 ± 0.22

Sequence: UGUUAGCAAUAUUACGCCUA
- self-splicing fitness (ln) (30 °C): -1.17 ± 0.13
- self-splicing fitness (ln) (37 °C): 0.387 ± 0.15

Sequence: UGUUAGCAAUAUUACGGAGG
- self-splicing fitness (ln) (30 °C): -2.3 ± 0.45

Sequence: UGUUAGCAAUAUUACGGCUC
- self-splicing fitness (ln) (30 °C): -2.55 ± 0.22
- self-splicing fitness (ln) (37 °C): 0.0795 ± 0.15

Sequence: UGUUAGCAAUAUUACGGGAG
- self-splicing fitness (ln) (30 °C): -3.62 ± 0.25
- self-splicing fitness (ln) (37 °C): -3.42 ± 0.25

Sequence: UGUUAGCAAUAUUACGGGGA
- self-splicing fitness (ln) (30 °C): -2.84 ± 0.22
- self-splicing fitness (ln) (37 °C): -2.2 ± 0.19

Sequence: UGUUAGCAAUAUUACGGUCC
- self-splicing fitness (ln) (30 °C): -2.6 ± 0.38

Sequence: UGUUAGCAAUAUUACGUCAC
- self-splicing fitness (ln) (30 °C): -3.58 ± 0.33
- self-splicing fitness (ln) (37 °C): -2.64 ± 0.38

Sequence: UGUUAGCAAUAUUACGUCAG
- self-splicing fitness (ln) (30 °C): -1.61 ± 0.15
- self-splicing fitness (ln) (37 °C): -0.486 ± 0.2

Sequence: UGUUAGCAAUAUUACGUUCG
- self-splicing fitness (ln) (30 °C): 0.135 ± 0.16
- self-splicing fitness (ln) (37 °C): 0.292 ± 0.16

Sequence: UGUUAGCAAUAUUACGUUUA
- self-splicing fitness (ln) (30 °C): -1.78 ± 0.09
- self-splicing fitness (ln) (37 °C): -0.902 ± 0.098

Sequence: UUAAAGCAAUAUUACGACUG
- self-splicing fitness (ln) (30 °C): -0.0352 ± 0.08
- self-splicing fitness (ln) (37 °C): 0.184 ± 0.12

Sequence: UUAAAGCAAUAUUACGAGGU
- self-splicing fitness (ln) (30 °C): -4.09 ± 0.24
- self-splicing fitness (ln) (37 °C): -3.3 ± 0.27

Sequence: UUAAAGCAAUAUUACGCAAG
- self-splicing fitness (ln) (30 °C): -0.46 ± 0.1
- self-splicing fitness (ln) (37 °C): 0.145 ± 0.14

Sequence: UUAAAGCAAUAUUACGCGGU
- self-splicing fitness (ln) (30 °C): -3.37 ± 0.18
- self-splicing fitness (ln) (37 °C): -0.344 ± 0.13

Sequence: UUAAAGCAAUAUUACGCGUU
- self-splicing fitness (ln) (30 °C): -2.44 ± 0.12
- self-splicing fitness (ln) (37 °C): -1.49 ± 0.13

Sequence: UUAAAGCAAUAUUACGGACA
- self-splicing fitness (ln) (30 °C): -0.00448 ± 0.072
- self-splicing fitness (ln) (37 °C): 0.068 ± 0.11

Sequence: UUAAAGCAAUAUUACGGAUU
- self-splicing fitness (ln) (30 °C): -2.69 ± 0.1
- self-splicing fitness (ln) (37 °C): -1.74 ± 0.14

Sequence: UUAAAGCAAUAUUACGGCAC
- self-splicing fitness (ln) (30 °C): -1.19 ± 0.1
- self-splicing fitness (ln) (37 °C): -0.195 ± 0.13

Sequence: UUAAAGCAAUAUUACGGCCA
- self-splicing fitness (ln) (30 °C): -0.086 ± 0.13
- self-splicing fitness (ln) (37 °C): -0.188 ± 0.17

Sequence: UUAAAGCAAUAUUACGGCGC
- self-splicing fitness (ln) (30 °C): -0.589 ± 0.11
- self-splicing fitness (ln) (37 °C): 0.34 ± 0.17

Sequence: UUAAAGCAAUAUUACGGGAC
- self-splicing fitness (ln) (30 °C): -3.27 ± 0.24
- self-splicing fitness (ln) (37 °C): -2.24 ± 0.28

Sequence: UUAAAGCAAUAUUACGGGCC
- self-splicing fitness (ln) (30 °C): -1.7 ± 0.21
- self-splicing fitness (ln) (37 °C): -1.25 ± 0.28

Sequence: UUAAAGCAAUAUUACGGGCG
- self-splicing fitness (ln) (30 °C): 0.077 ± 0.081
- self-splicing fitness (ln) (37 °C): -0.11 ± 0.1

Sequence: UUAAAGCAAUAUUACGGUAU
- self-splicing fitness (ln) (30 °C): -2.14 ± 0.086
- self-splicing fitness (ln) (37 °C): -1.22 ± 0.11

Sequence: UUAAAGCAAUAUUACGGUGA
- self-splicing fitness (ln) (30 °C): -0.488 ± 0.097
- self-splicing fitness (ln) (37 °C): 0.559 ± 0.13

Sequence: UUAAAGCAAUAUUACGUAGG
- self-splicing fitness (ln) (30 °C): -1.29 ± 0.11
- self-splicing fitness (ln) (37 °C): 0.067 ± 0.13

Sequence: UUAAAGCAAUAUUACGUCAC
- self-splicing fitness (ln) (30 °C): -2.97 ± 0.16
- self-splicing fitness (ln) (37 °C): -1.76 ± 0.22

Sequence: UUAAAGCAAUAUUACGUCCG
- self-splicing fitness (ln) (30 °C): -0.581 ± 0.12
- self-splicing fitness (ln) (37 °C): 0.242 ± 0.15

Sequence: UUAAAGCAAUAUUACGUCCU
- self-splicing fitness (ln) (30 °C): -0.682 ± 0.081
- self-splicing fitness (ln) (37 °C): -0.281 ± 0.096

Sequence: UUAAAGCAAUAUUACGUGCU
- self-splicing fitness (ln) (30 °C): -1.16 ± 0.082
- self-splicing fitness (ln) (37 °C): -0.057 ± 0.12

Sequence: UUAAAGCAAUAUUACGUGUU
- self-splicing fitness (ln) (30 °C): -3 ± 0.13
- self-splicing fitness (ln) (37 °C): -1.96 ± 0.16

Sequence: UUAAAGCAAUAUUACGUUGG
- self-splicing fitness (ln) (30 °C): -1.12 ± 0.094
- self-splicing fitness (ln) (37 °C): -0.746 ± 0.1

Sequence: UUACAGCAAUAUUACGAUUC
- self-splicing fitness (ln) (30 °C): -2.03 ± 0.092
- self-splicing fitness (ln) (37 °C): -0.667 ± 0.097

Sequence: UUACAGCAAUAUUACGCACA
- self-splicing fitness (ln) (30 °C): -0.783 ± 0.12
- self-splicing fitness (ln) (37 °C): 0.168 ± 0.12

Sequence: UUACAGCAAUAUUACGCAUA
- self-splicing fitness (ln) (30 °C): -1.34 ± 0.091
- self-splicing fitness (ln) (37 °C): -0.527 ± 0.1
